Assay results published in the RNAGym collection of RNA variant scans (doi:10.1093/molbev/msab373).

B1: Azoarcus group I ribozyme (parent)
chain: GUGCCUUGCGCCGGGAAACCACGCAAGGGAUGGUGUCAAAUUCGGCGAAACCUAAGCGCCCGCCCGGGCGUAUGGCAACGCCGAGCCAAGCUUCGGCGCCUGCGCCGAUGAAGGUGUAGAGACUAGACGGCACCCACCUAAGGCAAACGCUAUGGUGAAGGCAUAGUCCAGGGAGUGGCGAAAGUCACACAAACCGG

Variants of: B1
Experiment: reverse-splicing fitness (ratio to wild type); higher = more active; in vitro selection; Mg2+ level not given
Method in brief: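 An in vitro group I ribozyme library with randomized positions was T7-transcribed and gel-purified. In triplicate, 10 pmol RNA in EPPS pH 7.5 was reacted with 50 pmoles of a 30-nt RNA substrate for 1 h at 37 °C across several added MgCl2 levels (1–48 mM), then stopped with EDTA. Products were reverse transcribed from a substrate-complementary primer, PCR-amplified and sequenced (HiSeq 4000). Fitness is a variant's read proportion after selection over that before, normalised to wild type.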

Point of comparison: C82A A111U A120G C150G C169A U176A, reverse-splicing fitness 0.0106. Against it:
- C82A A111U A120G A145U C150G U176C — lower, 0.00834
- C82A A111U A120G A145U C150G U176G — lower, 0.00424
- C82A A111U A120G A145U C150U — higher, 0.0134
- C82A A111U A120G A145U C150U C169A — lower, 0.0101
- C82A A111U A120G A145U C150U C169A U176A — higher, 0.0139
- C82A A111U A120G A145U C150U C169A U176C — higher, 0.0139
- C82A A111U A120G A145U C150U C169A U176G — lower, 0.0057
- C82A A111U A120G A145U C150U C169G — lower, 0.0104
- C82A A111U A120G A145U C150U C169G U176A — higher, 0.0153
- C82A A111U A120G A145U C150U C169G U176C — higher, 0.0147
- C82A A111U A120G A145U C150U C169G U176G — lower, 0.00527
- C82A A111U A120G A145U C150U C169U — lower, 0.00891
- C82A A111U A120G A145U C150U C169U U176A — higher, 0.0207
- C82A A111U A120G A145U C150U C169U U176C — higher, 0.0148
- C82A A111U A120G A145U C150U C169U U176G — lower, 0.00524
- C82A A111U A120G A145U C150U U176A — lower, 0.0102
- C82A A111U A120G A145U C150U U176C — higher, 0.0151
- C82A A111U A120G A145U C150U U176G — lower, 0.00672
- C82A A111U A120G A145U C169A — lower, 0.00877
- C82A A111U A120G A145U C169A U176A — higher, 0.012
- C82A A111U A120G A145U C169A U176C — higher, 0.0107
- C82A A111U A120G A145U C169A U176G — lower, 0.00477
- C82A A111U A120G A145U C169G — lower, 0.00975
- C82A A111U A120G A145U C169G U176A — higher, 0.0119
- C82A A111U A120G A145U C169G U176C — higher, 0.014
- C82A A111U A120G A145U C169G U176G — lower, 0.00437
- C82A A111U A120G A145U C169U — lower, 0.00974
- C82A A111U A120G A145U C169U U176A — higher, 0.0196
- C82A A111U A120G A145U C169U U176C — higher, 0.0159
- C82A A111U A120G A145U C169U U176G — lower, 0.0047
- C82A A111U A120G A145U U176A — higher, 0.0132
- C82A A111U A120G A145U U176C — higher, 0.0145
- C82A A111U A120G A145U U176G — lower, 0.00522
- C82A A111U A120G C150A — the same, 0.0106
- C82A A111U A120G C150A C169A — higher, 0.0108
- C82A A111U A120G C150A C169A U176A — higher, 0.0214
- C82A A111U A120G C150A C169A U176C — higher, 0.0237
- C82A A111U A120G C150A C169A U176G — lower, 0.00665
- C82A A111U A120G C150A C169G — lower, 0.0102
- C82A A111U A120G C150A C169G U176A — higher, 0.0215
- C82A A111U A120G C150A C169G U176C — higher, 0.0227
- C82A A111U A120G C150A C169G U176G — lower, 0.0059
- C82A A111U A120G C150A C169U — lower, 0.00869
- C82A A111U A120G C150A C169U U176A — higher, 0.021
- C82A A111U A120G C150A C169U U176C — higher, 0.02
- C82A A111U A120G C150A C169U U176G — lower, 0.00816
- C82A A111U A120G C150A U176A — higher, 0.0123
- C82A A111U A120G C150A U176C — higher, 0.0188
- C82A A111U A120G C150A U176G — lower, 0.0101
- C82A A111U A120G C150G — lower, 0.00697
- C82A A111U A120G C150G C169A — lower, 0.00926
- C82A A111U A120G C150G C169A U176C — lower, 0.00965
- C82A A111U A120G C150G C169A U176G — lower, 0.00672
- C82A A111U A120G C150G C169G — lower, 0.00782
- C82A A111U A120G C150G C169G U176A — lower, 0.00798
- C82A A111U A120G C150G C169G U176C — lower, 0.0044
- C82A A111U A120G C150G C169G U176G — lower, 0.00446
- C82A A111U A120G C150G C169U — lower, 0.00851
- C82A A111U A120G C150G C169U U176A — lower, 0.01
- C82A A111U A120G C150G C169U U176C — higher, 0.0145
- C82A A111U A120G C150G C169U U176G — lower, 0.00618
- C82A A111U A120G C150G U176A — lower, 0.00663
- C82A A111U A120G C150G U176C — lower, 0.00922
- C82A A111U A120G C150G U176G — lower, 0.00319
- C82A A111U A120G C150U — higher, 0.0133
- C82A A111U A120G C150U C169A — the same, 0.0106
- C82A A111U A120G C150U C169A U176A — higher, 0.0156
- C82A A111U A120G C150U C169A U176C — higher, 0.0163
- C82A A111U A120G C150U C169A U176G — lower, 0.00525
- C82A A111U A120G C150U C169G — lower, 0.0105
- C82A A111U A120G C150U C169G U176A — higher, 0.0175
- C82A A111U A120G C150U C169G U176C — higher, 0.0205
- C82A A111U A120G C150U C169G U176G — lower, 0.00517
- C82A A111U A120G C150U C169U — lower, 0.00932
- C82A A111U A120G C150U C169U U176A — higher, 0.0197
- C82A A111U A120G C150U C169U U176C — higher, 0.0177
- C82A A111U A120G C150U C169U U176G — lower, 0.00708
- C82A A111U A120G C150U U176A — higher, 0.0109
- C82A A111U A120G C150U U176C — higher, 0.0178
- C82A A111U A120G C150U U176G — lower, 0.00825
- C82A A111U A120G C169A — lower, 0.0102
- C82A A111U A120G C169A U176A — higher, 0.0188
- C82A A111U A120G C169A U176C — higher, 0.0218
